The text below walks through data of patent US6867012B2, “Determination method of biological component and reagent kit used therefor” (Toyo Boseki Kabushiki Kaisha, priority 2000, dated 2005).

A short description of this series: Activity measurement of betaine-homocysteine methyltransferase (methionine produced, absorbance at 520 nm). In kind it is biochemical. As to conditions: 37° C., 1 h, pH 7.5; 1 U = 1 μmole of methionine per 1 h. Here is the method:
• reagent A 50 mM potassium phosphate buffer (pH 7.5) • reagent B 100 mM DL-homocysteine solution (dissolved in reagent A) • reagent C 100 mM betaine (dissolved in reagent A) • reagent D 0.2% aqueous pentacyanoanmineiron(III) sodium solution • reagent E acetic acid • reagent F 10% aqueous sodium nitrite solution <Measurement Conditions>
After the completion of the reaction, reagent D (5 ml) is added and the mixture is stirred. After standing for 1 min, 1 ml each of reagent E and reagent F were added in this order and the mixture is stirred. After standing for 30 min at room temperature, absorbance at 520 nm is measured. Using L-methionine dissolved in reagent A instead of the enzyme solution, absorbance is measured in the same manner and a standard curve is drawn, from which the amount of methionine produced by the enzymatic reaction is measured.

B1: betaine-homocysteine methyltransferase: Human-derived enzyme (EC 2.1.1.5) expressed from human liver cDNA in E. coli BL21(DE3) and purified (protein, UniProt Q93088 1-406, looked up)
Betaine--homocysteine …: MPPVGGKKAKKGILERLNAGEIVIGDGGFVFALEKRGYVKAGPWTPEAAVEHPEAVRQLHREFLRAGSNVMQTFTFYASEDKLENRGNYVLEKISGQEVNEAACDIARQVADEGDALVAGGVSQTPSYLSCKSETEVKKVFLQQLEVFMKKNVDFLIAEYFEHVEEAVWAVETLIASGKPVAATMCIGPEGDLHGVPPGECAVRLVKAGASIIGVNCHFDPTISLKTVKLMKEGLEAARLKAHLMSQPLAYHTPDCNKQGFIDLPEFPFGLEPRVATRWDIQKYAREAYNLGVRYIGGCCGFEPYHIRAIAEELAPERGFLPPASEKHGSWGSGLDMHTKPWVRARARKEYWENLRIASGRPYNPSMSKPDGWGVTKGTAELMQQKEATTEQQLKELFEKQKFKSQ
Take B1: the “specific activity of purified enzyme standard product” value is reported as “about 2.1 U/mg protein”.
